Data taken from the supplement of paper PMC10567573.

B1: MCOLN1 (parent)
chain: EEEDLRRRLKYFFMSPCDKFRAKG
B2: SEC22B (parent)
chain: AKQLFRKLNEQSPTRCTLEAGAMT

Variants of: B1
Test: protein stability index of a GFP-peptide fusion (GPS, HEK-293T) (PSI 1-6); higher = more stable
Details: c terminus: a fixed tail appended
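Further: lentivirally expressed fusions sorted by FACS into six bins by GFP to DsRed ratio, PSI derived from sequencing read proportions per bin multiplied by bin number.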

Variant	protein stability index
L5Y	2.45
L5C	2.82
L5N	3.51
L5H	3.31
L5A	2.91
L5P	3.17
L5V	3.09
L5Q	3.84
L5S	2.92
L5G	3.05
L5F	3.09
L5K	3.2
L5D	3.43
L5M	2.32
L5R	3.72
L5E	3.53
L5W	2.91
L5T	3.65
L5I	1.92
E3W	1.14
E3Q	1.5
E3R	2.15
E3V	2.83
E3L	1.37

Variant	protein stability index
E3S	2.9
E3G	2.12
E3I	1.64
E3K	1.87
E3D	2.41
E3A	1.62
E3F	2.04
E3P	2.25
E3Y	1.85
E3N	1.91
E3H	2.33
E3T	1.52
E3M	1.15
E3C	2.65
R8P	3.23
R8D	3.11
R8E	3.21
R8L	2.1
R8A	2
R8F	1.42
R8G	2.97
R8C	1.86
R8I	1.76
R8M	2.05

Variant	protein stability index
R8H	2.35
R8N	3.29
R8K	2.71
R6M	1.42
R6E	3.48
R6Q	3.04
R6S	3.6
R6T	2.66
R6P	2.11
R6W	1.8
R6H	1.97
R6L	1.76
R6N	3.78
R6A	3.18
R6V	2.34
R6G	2.99
R6D	3.28
R6K	1.9
R6C	2.85
R6F	1.59
R6Y	1.64
R6I	2
R7Y	2.65
R7V	2

Variant	protein stability index
R7P	3.33
R7H	2.73
R7Q	2.52
R7M	1.55
R7N	2.55
R7F	2.44
R7A	2.35
R7S	2.82
R7K	2.63
R7L	2.29
R7W	1.91
R7T	2.65
R7D	3.01
R7I	2.39
R7C	2.38
R7E	3.33
D4V	1.74
D4W	1.44
D4Y	2.18
D4I	1.71
D4F	1.42
D4H	2.04
D4C	1.8
D4T	2.49

Variant	protein stability index
D4G	3.22
D4P	2.94
D4S	1.42
D4N	2.04
D4E	2.08
D4A	1.13
D4R	2.23
D4L	2.13
D4Q	1.57
D4K	1.83
D4M	1.48
E1W	2.2
E1T	3.34
E1N	1.51
E1M	2.08
E1I	2.19
E1A	2.53
E1H	3.05
E1V	1.51
E1Q	1.62
E1P	2.14
E1G	2.46
E1R	1.36
E1F	2.29

Variant	protein stability index
E1L	2.16
E1S	2.24
E1D	2.96
E1C	3.42
E1K	1.76
E1Y	2.27
E2Q	2.27
E2P	2.23
E2H	2.72
E2I	2.21
E2Y	1.94
E2W	4.34
E2M	2.58
E2T	1.72
E2A	2.37
E2D	1.92
E2S	1.86
E2R	3.07
E2N	1.96
E2G	1.67

Variants of: B2
Test: as above
Details: c terminus: a fixed tail appended

Variant	protein stability index
T24M	2.59
T24C	2.26
T24S	2.19
T24K	2.29
T24G	2.49
T24I	1.92
T24R	2.14
T24W	2.19
Q11K	1.96
Q11H	1.99
Q11I	1.71
Q11N	2.22
Q11E	2.85
Q11S	2.1
Q11W	1.98
Q11D	2.44
Q11V	1.48
Q11T	1.82
L4W	2.02
L4N	2.75
L4K	2.89
L4Y	2.32
L4V	2.07
L4P	3.07
A20R	2.77

Variant	protein stability index
A20W	1.59
A20G	3.5
A20S	2.99
A20M	3.4
A20Q	2.87
A20Y	2.01
A20F	1.34
A20L	2.27
K2R	2.76
K2V	1.54
K2A	2.13
K2T	1.83
K2Q	2
K2N	2.72
K2G	2.77
K2L	2.1
M23D	2.77
M23T	2.22
M23P	2.7
M23E	2.59
M23Y	2.37
M23S	2.7
M23N	2.61
M23F	1.72
T14G	1.74

Variant	protein stability index
T14I	2.55
T14S	1.89
T14A	1.68
T14K	2.41
T14V	2.06
T14R	2.38
R15M	2.71
R15A	3.03
R15L	3.03
R15G	3.15
R15F	2.41
R15I	2.76
R15T	2.67
P13F	1.77
P13H	1.7
P13S	1.58
P13L	2.08
P13G	1.96
P13I	1.61
P13D	3.06
P13V	2.46
P13E	2.81
L8E	3.13
L8Q	3.08
L8A	2.91

Variant	protein stability index
L8T	2.89
L8C	2.35
L8M	2.55
L8H	2.64
L8N	2.49
N9Y	2.6
N9R	2.88
N9S	1.8
N9P	2.59
T17M	2.46
T17A	1.81
T17G	1.69
T17I	1.86
T17F	1.6
T17C	2.4
T17P	2.77
T17H	2
T17E	3.23
T17R	2.69
T17D	3.48
C16G	3.93
C16N	3.74
C16S	3.66
C16T	3.64
C16F	2.15

Variant	protein stability index
C16M	3.08
C16R	3.27
C16L	3.19
R6G	2.36
R6L	2.99
R6Q	2.67
R6F	1.49
R6C	2.42
R6N	2.05
R6I	1.67
R6P	2.51
R6Y	2.15
R6E	2.46
L18R	2.46
L18F	2.09
L18M	2.16
L18I	2.35
L18Y	1.89
L18P	3.24
L18V	2.78
L18T	2.84
L18G	2.48
L18H	2.64
K7A	1.97
K7N	2.47

Variant	protein stability index
K7I	1.81
K7P	3.33
K7T	2.54
K7F	1.67
Q3H	1.93
Q3W	2.53
Q3S	1.88
Q3M	1.94
Q3I	1.77
Q3C	2.39
Q3L	2.08
Q3R	1.93
Q3P	2.5
Q3N	3.08
Q3E	2.51
A1Q	2.44
A1N	2.22
A1T	2.3
A1M	1.6
A1S	2.46
A1I	1.5
A1V	2.16
A1F	2.18
F5R	3.22
F5M	2.62

Variant	protein stability index
F5H	2.89
F5C	2.55
F5N	3.07
F5G	3.62
F5I	2.3
F5A	3.67
F5E	2.97
E19C	2.52
E19M	2.15
E19H	2.46
E19I	1.64
E19W	2.22
E19Y	2.18
E19S	2.94
A22E	2.53
A22N	2.8
A22T	1.84
A22M	2.07
A22L	1.58
E10T	2.31
E10N	1.95
E10M	2.72
E10F	2.99
E10A	1.88
E10C	1.41

Variant	protein stability index
E10D	2.18
E10S	2.89
E10V	1.81
G21I	1.88
G21S	2.51
G21K	2.11
G21Q	1.68
G21P	2.38
G21F	2.42
G21D	2.99
G21N	2.18
G21M	1.34
S12R	1.4
S12F	2.05
S12L	2.84
S12G	2.14
S12P	1.68
S12C	2.87
S12N	1.93
